This is an account of results in patent US20230192824A1 (UNITED STATES OF AMERICA AS REPRESENTED BY THE SECRETARY OF …, published 2023).

Test [1] addresses T1, CfaE, tip adhesin of CFA/I fimbriae on wild type ETEC strain H10407 (Escherichia coli (ETEC) strain H10407, UniProt P25734 23-360).
T1 sequence: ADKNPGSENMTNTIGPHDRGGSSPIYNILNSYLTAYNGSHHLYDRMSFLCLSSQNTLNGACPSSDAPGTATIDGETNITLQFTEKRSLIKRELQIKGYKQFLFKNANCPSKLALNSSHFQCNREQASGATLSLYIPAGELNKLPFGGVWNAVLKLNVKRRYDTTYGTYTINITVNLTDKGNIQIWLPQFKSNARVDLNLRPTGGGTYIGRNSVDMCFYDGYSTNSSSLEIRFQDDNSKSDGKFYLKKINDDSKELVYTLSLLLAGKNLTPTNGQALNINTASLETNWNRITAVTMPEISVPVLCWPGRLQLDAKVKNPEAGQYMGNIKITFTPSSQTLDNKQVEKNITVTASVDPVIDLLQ
Kind of test: cell-based or functional assay.

In test [2] the target is CsfD, tip adhesin of CS4 fimbriae on wild type ETEC strain BANG10-SP (Escherichia coli (ETEC) strain BANG10-SP). Kind of test: cell-based or functional assay.
For test [3], the target named is CsuD, tip adhesin of CS14 fimbriae on wild type ETEC strain WS3294A (Escherichia coli (ETEC) strain WS3294A). Kind of test: cell-based or functional assay.
Test [4] has as its target T2, CsbD, tip adhesin of CS17 fimbriae on wild type ETEC strain WS6788A (Escherichia coli (ETEC) strain WS6788A).
T2 chain: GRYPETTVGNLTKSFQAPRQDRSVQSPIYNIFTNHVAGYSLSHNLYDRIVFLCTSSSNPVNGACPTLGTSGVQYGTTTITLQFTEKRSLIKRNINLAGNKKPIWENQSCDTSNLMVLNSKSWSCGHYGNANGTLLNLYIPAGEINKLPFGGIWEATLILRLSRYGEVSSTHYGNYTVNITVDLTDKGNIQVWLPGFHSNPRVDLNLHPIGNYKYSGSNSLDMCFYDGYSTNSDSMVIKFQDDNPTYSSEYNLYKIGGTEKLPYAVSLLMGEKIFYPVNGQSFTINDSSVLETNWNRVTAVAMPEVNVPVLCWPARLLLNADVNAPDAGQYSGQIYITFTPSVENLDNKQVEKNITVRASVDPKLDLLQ
Kind of test: cell-based or functional assay.

Test [5] deals with T3, CsbD L85I/H144A, tip adhesin of CS17 fimbriae on wild type ETEC strain LSN02-013966/A (Escherichia coli (ETEC) strain …).
T3 chain: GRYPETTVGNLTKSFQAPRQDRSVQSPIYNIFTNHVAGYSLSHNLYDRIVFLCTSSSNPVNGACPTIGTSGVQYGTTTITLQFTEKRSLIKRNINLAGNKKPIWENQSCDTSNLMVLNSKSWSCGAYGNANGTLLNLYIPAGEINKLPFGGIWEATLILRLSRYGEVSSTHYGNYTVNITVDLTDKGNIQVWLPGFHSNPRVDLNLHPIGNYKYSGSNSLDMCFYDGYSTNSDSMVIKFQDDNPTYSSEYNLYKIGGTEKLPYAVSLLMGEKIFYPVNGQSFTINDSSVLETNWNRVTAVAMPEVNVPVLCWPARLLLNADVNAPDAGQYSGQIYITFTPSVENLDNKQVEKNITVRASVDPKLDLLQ
The test can be described thus: cell-based or functional assay.

Test [6] deals with T4, CsbD L85I, tip adhesin of CS17 fimbriae on wild type ETEC strain WS4240A (Escherichia coli (ETEC) strain WS4240A).
T4 chain: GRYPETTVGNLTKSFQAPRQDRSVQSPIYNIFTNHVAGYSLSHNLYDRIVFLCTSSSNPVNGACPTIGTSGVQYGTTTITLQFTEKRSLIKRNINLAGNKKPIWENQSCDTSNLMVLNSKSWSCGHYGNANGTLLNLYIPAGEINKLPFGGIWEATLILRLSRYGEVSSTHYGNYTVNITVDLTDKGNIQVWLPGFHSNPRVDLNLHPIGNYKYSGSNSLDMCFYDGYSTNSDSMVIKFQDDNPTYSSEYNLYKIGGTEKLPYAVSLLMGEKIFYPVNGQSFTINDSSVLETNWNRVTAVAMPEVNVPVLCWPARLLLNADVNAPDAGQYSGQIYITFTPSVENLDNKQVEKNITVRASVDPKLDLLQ
Kind of test: cell-based or functional assay.

In test [7] the target is CooD, tip adhesin of CS1 fimbriae on wild type ETEC strain WS1974A (Escherichia coli (ETEC) strain WS1974A). The test can be described thus: cell-based or functional assay.
Test [8] deals with T5, CotD, tip adhesin of CS2 fimbriae on wild type ETEC strain C91f (Escherichia coli (ETEC) strain C91f).
T5 chain: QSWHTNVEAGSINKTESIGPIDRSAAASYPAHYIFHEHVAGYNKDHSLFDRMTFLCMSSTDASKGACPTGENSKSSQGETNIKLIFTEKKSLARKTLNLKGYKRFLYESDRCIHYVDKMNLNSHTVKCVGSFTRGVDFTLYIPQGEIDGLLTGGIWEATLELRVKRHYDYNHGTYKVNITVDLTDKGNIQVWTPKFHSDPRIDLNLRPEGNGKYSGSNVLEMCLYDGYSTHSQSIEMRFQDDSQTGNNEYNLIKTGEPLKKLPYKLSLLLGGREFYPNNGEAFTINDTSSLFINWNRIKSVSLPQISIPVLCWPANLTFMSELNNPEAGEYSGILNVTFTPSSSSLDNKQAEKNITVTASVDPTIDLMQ
The test can be described thus: cell-based or functional assay.

Test [9] has as its target T6, dsc19CfaE6xhis (H10407), donor strand complemented recombinant CFA/I fimbrial tip adhesin CfaE (Escherichia coli (ETEC) strain H10407, UniProt P25734 23-360).
T6 construct: also called dscCfaE; primary CfaE
T6 sequence: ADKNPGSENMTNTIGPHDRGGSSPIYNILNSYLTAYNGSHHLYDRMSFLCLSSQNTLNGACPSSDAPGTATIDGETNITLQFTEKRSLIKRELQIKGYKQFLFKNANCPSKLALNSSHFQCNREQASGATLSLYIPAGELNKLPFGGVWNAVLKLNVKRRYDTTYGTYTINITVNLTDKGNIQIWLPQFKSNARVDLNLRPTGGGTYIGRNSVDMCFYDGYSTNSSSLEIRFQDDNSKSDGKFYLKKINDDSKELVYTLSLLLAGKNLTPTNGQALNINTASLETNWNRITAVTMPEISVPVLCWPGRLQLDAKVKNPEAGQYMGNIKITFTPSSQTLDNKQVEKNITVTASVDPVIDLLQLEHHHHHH
Kind of test: ELISA on coated adhesin.

Test [10] addresses T7, dsc19CotD6xhis (C91f), donor strand complemented recombinant CS2 fimbrial tip adhesin CotD (Escherichia coli (ETEC) strain C91f).
T7 construct: also called dscCotD; CS2 adhesin
T7 chain: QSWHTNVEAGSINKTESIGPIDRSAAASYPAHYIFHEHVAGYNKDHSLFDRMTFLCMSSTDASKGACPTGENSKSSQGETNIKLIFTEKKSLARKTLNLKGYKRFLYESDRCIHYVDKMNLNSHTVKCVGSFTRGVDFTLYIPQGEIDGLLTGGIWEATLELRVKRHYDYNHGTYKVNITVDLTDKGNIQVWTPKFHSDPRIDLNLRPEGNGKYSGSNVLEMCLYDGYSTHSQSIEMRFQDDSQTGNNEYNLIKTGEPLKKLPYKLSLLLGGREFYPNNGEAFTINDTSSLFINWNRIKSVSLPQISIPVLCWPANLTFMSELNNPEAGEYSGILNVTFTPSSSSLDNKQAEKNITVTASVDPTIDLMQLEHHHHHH
The test can be described thus: ELISA on coated adhesin. (In an ELISA, binding on a coated surface is turned into a signal by an enzyme label.)

The target in test [11] is T8, dsc19CsbD6xhis (WS6788A), donor strand complemented recombinant CS17 fimbrial tip adhesin CsbD (Escherichia coli (ETEC) strain WS6788A).
T8 construct: also called dscCsbD; primary CsbD
T8 chain: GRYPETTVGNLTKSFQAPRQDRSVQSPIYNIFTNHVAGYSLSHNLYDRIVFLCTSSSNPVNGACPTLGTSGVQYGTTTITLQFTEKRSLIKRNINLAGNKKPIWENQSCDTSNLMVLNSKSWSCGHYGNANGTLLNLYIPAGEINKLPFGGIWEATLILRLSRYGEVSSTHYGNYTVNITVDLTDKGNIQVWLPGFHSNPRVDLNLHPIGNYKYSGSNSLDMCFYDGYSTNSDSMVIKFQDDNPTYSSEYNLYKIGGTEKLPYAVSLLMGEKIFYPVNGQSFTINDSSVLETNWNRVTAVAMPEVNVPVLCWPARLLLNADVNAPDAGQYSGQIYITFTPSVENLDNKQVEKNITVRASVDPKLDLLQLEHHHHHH
The test can be described thus: ELISA on coated adhesin.

B1: anti-CsbD mouse mAb P7C2 (antibody, V domains shown)
VH: EVKLEESGGGLVQPGGSMKLSCAASGFTFSDAWMDWVRQSPEKGLEWVGKIRSEINDHATYYAESVKGRFTISRDDSKSGVYLQMNNLRAEDTGIYYCARDGYYGAMDYWGQGTSVTVSS
VL: DVQITQSPSYLAASPGETITINCRSNKSISRYLAWYQEKPGKTNKLLIYSGSTLQSGIPSRFSGSGSNTDFTLTISSLEPEDFAMYYCQQHNEYPYTFGSGTKLEIK
Regarding B1, the “MIC in HAI” value in [1] was > 250 µg/mL; in [2], > 250 µg/mL; in test [3], > 250 µg/mL; in test [4], 1 µg/mL; in test [5], 1 µg/mL; in test [6] it was 2 µg/mL. Moreover, the “MIC in HAI” value was 4 µg/mL in test [7] and > 250 µg/mL in test [8]. Also, the binding result in [9] and in test [10] was “no binding (tested: mAb 2 ug/ml)” in each case.

B2: anti-CfaE mouse mAb P5C7 (antibody, V domains shown)
VH: QIQLVQSGPELKKPGETVKISCKASGYTFTNYGMNWVKQAPGKGLKWMGWINTYTGEPTYTDDFKGRFAFSLETSASTAYLQINSLKTEDTATYFCARMEYGNYENAMDSWGQGTSVTVSS
VL: DTVMTQSHKFMSTSVGDRVSITCKASQDVSTAVVWYQQKPGQSPKLLIYSASYRYTGVPDRFTGSGSGTDFTFTISSVQAEDLAVYYCLQHFNIPRTFGGGTKLEIK
Take B2: the “MIC in HAI” value in [1] is 1.2 µg/mL; in test [2] it was > 250 µg/mL; in test [3], > 250 µg/mL; in test [4], 16 µg/mL; in test [5] it was > 250 µg/mL; in test [6], > 250 µg/mL. Also, the “MIC in HAI” value in test [7] and in test [8] was > 250 µg/mL throughout. Besides, the binding result in test [10] was “no binding (tested: mAb 2 ug/ml)”.

B3: anti-CsbD mouse mAb P9A5 (antibody, V domains shown)
VH: EVQLQQFGAEVVKPGASVKISCKASGYTFTDYNIDWVKQSHGESLEWIGDISPNSEGTTYNQKFKGQATLTIDKSSTTAYMELRSLTSEDSAVYYCARGSGIWNGLDYWGQGTSVTVSS
VL: DIVMTQSHKFMSTSVGDRVSITCKASQDVSTAVAWYQQKPGQSPQLLIYSSSYRYVGVPDRFTGSGSGTDFTFTISSVQAEDLAVYYCHQHYSLPYTFGGGTKLEIK
notes: Isotype n.d
As to B3, the “MIC in HAI” value was > 250 µg/mL in test [1]; > 250 µg/mL in test [2]; > 250 µg/mL in [3]; 4 µg/mL in [4]; 3.9 µg/mL in test [5]; 4 µg/mL in test [7]. In addition, the “MIC in HAI” value in [8] was > 250 µg/mL. Also, the binding result in test [9] and in test [10] was “no binding (tested: mAb 2 ug/ml)” each time.

B4: anti-CotD mouse mAb P6B8 (antibody, V domains shown)
VH: QVTLKESGPGILQPSQTLSLTCSFSGFSLSTSGMGVGWIRQPSGKGLEWLSHIWWDDEKRYNPALKSRLTISKDTSSNQVFLKIASVDTADTATYYCARIGDRSGHAGFVYWGQGTLVTVSA
VL: DIKMTQSPSSMYASLGERVTITCKASQDINSYLSWFQQKPGKSPKTLIYRANRLVDGVPSRFSGSGSGQDYSLTISSLEYEDMGTYYCLQYDEFPYTFGGGTKLEIK
With B4, the “MIC in HAI” value in test [1], in [2], in test [3], in [4], in test [5] and in test [7] was > 250 µg/mL each time. Also, the “MIC in HAI” value in test [8] stood at 3 µg/mL. For the same molecule, the binding result in test [9] and in [11] was “no binding (tested: mAb 2 ug/ml)” each time.
